Experimental data taken from US20030054493A1.

How the values were obtained:
[1] = target: Crotalus durissus terrificus (C.d.t.) venom; experiment: ELISA, venom-coated wells; dilution printed 1.5
[2] = target: Crotalus durissus terrificus (C.d.t.) venom; experiment: ELISA, venom-coated wells (5 µg/ml); dilution 1:625
[3] = target: Crotalus durissus terrificus (C.d.t.) venom; experiment: ELISA, venom-coated wells; dilution 1:625
[4] = target: Crotalus durissus terrificus (C.d.t.) venom; experiment: ELISA, venom-coated wells; dilution 1:25
[5] = target: Crotalus durissus terrificus (C.d.t.) venom; experiment: ELISA, venom-coated wells (5 µg/ml); undiluted
[6] = target: Crotalus durissus terrificus (C.d.t.) venom; experiment: ELISA, venom-coated wells; dilution 1:312,500
[7] = target: Crotalus durissus terrificus (C.d.t.) venom; experiment: ELISA, venom-coated wells; dilution 1:125
[8] = target: Crotalus durissus terrificus (C.d.t.) venom; experiment: ELISA, venom-coated wells (5 µg/ml); dilution 1:125
[9] = target: Crotalus durissus terrificus (C.d.t.) venom; experiment: ELISA, venom-coated wells; dilution 1:3125
[10] = target: Crotalus durissus terrificus (C.d.t.) venom; experiment: ELISA, venom-coated wells; dilution 1:62,500
[11] = target: Crotalus durissus terrificus (C.d.t.) venom; experiment: ELISA, venom-coated wells (5 µg/ml); dilution 1:25
[12] = target: Crotalus durissus terrificus (C.d.t.) venom; experiment: ELISA, venom-coated wells (5 µg/ml); dilution 1:5
[13] = target: Crotalus durissus terrificus (C.d.t.) venom; experiment: ELISA, venom-coated wells (5 µg/ml); dilution 1:3125

## preimmune IgY (antibody)
[1]
  ELISA absorbance: < 0 absorbance
[2]
  ELISA absorbance: 0 absorbance
[3]
  ELISA absorbance: < 0 absorbance
[4]
  ELISA absorbance: 0.016 absorbance
[5]
  ELISA absorbance: 0.003 absorbance
[6]
  ELISA absorbance (absorbance (412 nm filter)): 0.01
[7]
  ELISA absorbance: < 0 absorbance
[8]
  ELISA absorbance: 0.003 absorbance
[9]
  ELISA absorbance: < 0 absorbance
[10]
  ELISA absorbance (absorbance (412 nm filter)): 0.001
[11]
  ELISA absorbance: 0 absorbance
[12]
  ELISA absorbance: < 0 absorbance
[13]
  ELISA absorbance: 0.002 absorbance
